Data reported in US20220396620A1 (Takeda / Millennium, published 2022).
Changes are numbered by the printed parent chain.

B1: M4 mouse anti-huCB-1 antibody (antibody, V domains shown)
VH: QVQLQQSGAELVRPGSSVKISCKASGYEFNYYWMNWVKQRPGQGLEWIGQIYPGDGDINYNGKFKGKATLTSDKSSSTVYMQLSSLTSEDSAVYFCSRSKGNPFAYWGQGTLVTVSA
VL: DIQMTQTTSSLSASLGDSVTISCRASQGIRNYLNWYQQKPDGTVKLLIYYTSRLHSGVPPRFSGSGSGTDYSLTISNLEQEDLATYFCQQGNTLPYTFGGGTKLEIK
B2: M8 mouse anti-huCB-1 antibody (antibody, V domains shown)
VH: QVQLQQPGAELVKPGASVKLSCKASGYTFTDYWMHWVKQRPGHGLEWIGEIYPSSGRANYNGNFKRKATLTVDKSSSTAYMQLSSLTSEDSAVYYCARSRGNYLPYWGHGTPVTVSA
VL: QIVLTQSPAIMSASLGERVTMTCTAGSTVSSSYLHWYQQRPGSSPKLWIYGTSNLASGVPARFSGSGSGTSYSLTISSMEAEDAATYYCHQYHRSPPTFGGGTKLEIK
B3: M7 mouse anti-huCB-1 antibody (antibody, V domains shown)
VH: EVQLQQPGAELVRPGASVKLSCKASSYTFTRYWMNWVKQRPEEGLEWIGMIDPYDSETHYNQKFKDKAILTVDKSSSTAYMQLSTLTSEDSAVYFCARSQPRYYAMDYWGQGTSVTVSS
VL: DIQMSQSPSSLSASLGERVSLTCRASQEISGFLSWLQLRPDGTIKRLIYAASSLDSGVPKRFRGSWSGSDYSLTISSLESEDFADYYCLQYSSYPYTFGGGTKLEIK
B4: M5 mouse anti-huCB-1 antibody (antibody, V domains shown)
VH: QVHLQQSGAELVRPGSSVKISCKASGYEFSYYWMNWVKQRPGQGHEWIGQIYPGDGDTNYNGKFKGKATLTADKSSSTAYMQLSSLTSEDSAVYFCARGREAAWFAYWGQGTLVTVSA
VL: DIVLAQSPASLAVSLGQRATISCRASQSVSSFRYSYLHWYQQKPGQPPRLLIKYASNLESGVPARFSGSGSGTDFTLNIHPVEEEDTATYFCQHSWEIPFTFGSGTKLEIKR
notes: The humanized M5-H1 and M5-H2 carry the CDRs of the un-numbered VL, so that one may be the functional light chain
B5: M7-H5 humanized anti-CB1 antibody (antibody, human IgG1, kappa, L234A L235A, V domains shown)
VH: QVQLVQSGAEVVKPGASVKLSCKASSYTFTRYWMNWVKQAPGQGLEWIGMIDPYDSETHYNQKFKDKAILTVDKSTSTAYMELSTLRSEDTAVYFCARSQPRYYAMDYWGQGTSVTVSS
VL: DIQMTQSPSSLSASLGDRVTLTCRASQEISGFLSWLQLRPDGTIKRLIYAASSLDSGVPSRFRGSWSGTDYTLTISSLQSEDFADYYCLQYSSYPYTFGGGTKLEIKR
B6: M7-H6 humanized anti-CB1 antibody (antibody, human IgG1, kappa, V domains shown)
VH: QVQLVQSGAEVKKPGASVKVSCKASSYTFTRYWMNWVRQAPGQGLEWMGMIDPYDSETHYNQKFKDRVTMTRDTSTSTVYMELSSLRSEDTAVYYCARSQPRYYAMDYWGQGTSVTVSS
VL: DIQMTQSPSSLSASVGDRVTITCRASQEISGFLAWFQQKPGKAPKSLIYAASSLQSGVPSRFSGSGSGTDFTLTISSLQPEDFATYYCQQYSSYPYTFGGGTKLEIKR
B7: M7-H3 humanized anti-CB1 antibody (antibody, human IgG1, kappa, L234A L235A, V domains shown)
VH: B6 VH with R38K, M48I, K65Q, D66G, V68A, M70L, R72V, Y95F, S114T
VL: B5 VL with R39K, D41G, G42K, R63S, S80P
B8: M7-H2 humanized anti-CB1 antibody (antibody, human IgG1, kappa, L234A L235A)
heavy: not shown
light: DIQMTQSPSSLSASVGDRVTLTCRASQEISGFLSWLQLKPGKAIKRLIYAASSLDSGVPSRFSGSWSGTDYTLTISSLQPEDFADYYCLQYSSYPYTFGGGTKVEIKRTVAAPSVFIFPPSDEQLKSGTASVVCLLNNFYPREAKVQWKVDNALQSGNSQESVTEQDSKDSTYSLSSTLTLSKADYEKHKVYACEVTHQGLSSPVTKSFNRGEC
B9: M5-H1 humanized anti-CB1 antibody (antibody, human IgG1, kappa, L234A L235A, V domains shown)
VH: QVQLVQSGAEVVKPGASVKISCKASGYEFSYYWMNWVKQAPGQGHEWIGQIYPGDGDTNYNGKFKGKATLTADKSTSTAYMELSSLRSEDTAVYFCARGREAAWFAYWGQGTLVTVSS
VL: DIQLTQSPSSLSVSVGDRATITCRASQSVSSFRYSYLHWYQQKPGKAPKLLIKYASNLESGVPSRFSGSGSGTDFTLTISSVQPEDFATYFCQHSWEIPFTFGQGTKLEIKR
B10: M5-H2 humanized anti-CB1 antibody (antibody, human IgG1, kappa, L234A L235A, V domains shown)
VH: B9 VH with V12K, I20V, K38R, G62Q, K65Q, K67R, A68V, K74T
VL: B9 VL

These binders were tested against T1, human cannabinoid receptor type 1 (CB1) (human, UniProt P21554 1-472) (assay: cell-based or functional assay).
T1 sequence (P21554 whole entry): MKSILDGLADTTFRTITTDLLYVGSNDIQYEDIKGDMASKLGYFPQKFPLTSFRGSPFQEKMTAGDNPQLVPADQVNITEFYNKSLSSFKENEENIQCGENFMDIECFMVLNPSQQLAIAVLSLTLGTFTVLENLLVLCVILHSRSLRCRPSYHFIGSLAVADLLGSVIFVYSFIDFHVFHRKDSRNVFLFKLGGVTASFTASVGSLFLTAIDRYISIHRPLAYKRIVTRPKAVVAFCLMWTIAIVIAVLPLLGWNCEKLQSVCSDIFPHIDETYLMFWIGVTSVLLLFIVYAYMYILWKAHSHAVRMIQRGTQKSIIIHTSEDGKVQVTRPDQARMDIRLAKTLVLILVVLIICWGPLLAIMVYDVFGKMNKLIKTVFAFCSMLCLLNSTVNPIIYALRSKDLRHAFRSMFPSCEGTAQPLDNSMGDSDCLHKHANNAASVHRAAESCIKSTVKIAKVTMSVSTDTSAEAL

Going from B1 to B2, the “Mean P-ERK (% inhibition)” value falls from 70 % inhibition to 64 % inhibition.

Going from B3 to B4, the “Mean P-ERK (% inhibition)” value rises from 95 % inhibition to 101 % inhibition.

First: B1
Second: B2
The “Mean cAMP (% Amgen)” value of the first is higher: 41 % Amgen for the first, 29 % Amgen for the second.

B3 and B4 are the same in “Mean cAMP (% Amgen)” value: 61 % Amgen for the first, 61 % Amgen for the second.

Going from B1 to B2, the “P-ERK IC50 (nM) Data Set 1” value falls from 97 nM to 36 nM (2.7-fold).

First: B3
Second: B4
The “P-ERK IC50 (nM) Data Set 1” value of the first is 1.6-fold lower: 117 nM for the first, 191 nM for the second.

First: B1
Second: B2
The “P-ERK IC50 (nM) Data Set 2” value of the first is 19-fold higher: 890 nM for the first, 47 nM for the second.

Compared with B3, B4 is 3.4-fold lower in “P-ERK IC50 (nM) Data Set 2” value: 170 nM for the first, 50 nM for the second.

First: B1
Second: B2
The “cAMP EC50 (nM) Data Set 1” value of the first is 1.9-fold higher: 180 nM for the first, 96 nM for the second.

B3 and B4 are within 1.5-fold of each other in “cAMP EC50 (nM) Data Set 1” value: 78 nM for the first, 91 nM for the second.

First: B1
Second: B2
The “cAMP EC50 (nM) Data Set 2” value of the first is 1.7-fold higher: 320 nM for the first, 190 nM for the second.

B3 and B4 are within 1.5-fold of each other in “cAMP EC50 (nM) Data Set 2” value: 120 nM for the first, 170 nM for the second.

B1 and B2 are within 1.5-fold of each other in “cAMP EC50 (nM) Data Set 3” value: 430 nM for the first, 370 nM for the second.

B3 and B4 are within 1.5-fold of each other in “cAMP EC50 (nM) Data Set 3” value: 120 nM for the first, 170 nM for the second.

What follows are binders tested against T1, human cannabinoid receptor type 1 (CB1) (assay: FACS, titration on CB1 over-expressing CHO cells).
Experimental: (§1) Antibody binding was tested in a fluorescence activated cell sorting (FACS)-based assay for the ability of the mouse anti-CB1 antibodies to bind parental CHO cells, human CB-1 overexpressing CHO cells and mouse CB-1 overexpressing CHO cells to obtain binding curves and EC50 values. The three cell lines were harvested, washed and dispensed at 1×10⁵ cells per well of a v-bottomed 96-well polycarbonate FACS plates (Corning, Corning, N.Y., Cat. No. 3357) in 50 μl of FACS buffer (1×PBS/2 mM EDTA and 1% FBS (ThermoFisher Scientific, Anaheim, Calif.; Cat. No. 10438-026). Serial dilutions of the antibodies were prepared at 2× concentrations starting at 200 nM and serially diluted 3-fold. The titrated antibodies were added to the plates containing the three different cell lines (parental, human and mouse CB-1 CHO cells) and incubated at 4° C. for 1 hour. The plates were washed 3× with FACS buffer. […] None of the eight functional antibodies tested were mouse cross reactive (FIG. 3).

Compared with B1, B2 is 1.8-fold lower in EC50: 19.2 nM for the first, 10.7 nM for the second. The second is the more potent here.

Compared with B3, B4 is 1.6-fold higher in EC50: 13 nM for the first, 20.2 nM for the second. The first is the more potent here.

These binders were tested against T1, human cannabinoid receptor type 1 (CB1) (assay: FACS on CHO-huCB-1 cells, single concentration 30 ug/mL).

B5: binds.
B6: binds.

What follows are binders tested against T1, human cannabinoid receptor type 1 (CB1) (assay: flow cytometry, single point at 30 ug/mL antibody on CHO-huCB-1 cells).

B7: binds.
B8: binds.
B9: binds.
B10: binds.

What follows are binders tested against T2, mouse CB-1 (mouse, UniProt P47746 1-473) (assay: flow cytometry on CHO-Mouse CB1 cells, 3-fold antibody titration from 200 nM).
T2 construct: whole, on cells; also called moCB1; moCB1-CHO cells
Experimental: as §1

T2 sequence (P47746 whole entry): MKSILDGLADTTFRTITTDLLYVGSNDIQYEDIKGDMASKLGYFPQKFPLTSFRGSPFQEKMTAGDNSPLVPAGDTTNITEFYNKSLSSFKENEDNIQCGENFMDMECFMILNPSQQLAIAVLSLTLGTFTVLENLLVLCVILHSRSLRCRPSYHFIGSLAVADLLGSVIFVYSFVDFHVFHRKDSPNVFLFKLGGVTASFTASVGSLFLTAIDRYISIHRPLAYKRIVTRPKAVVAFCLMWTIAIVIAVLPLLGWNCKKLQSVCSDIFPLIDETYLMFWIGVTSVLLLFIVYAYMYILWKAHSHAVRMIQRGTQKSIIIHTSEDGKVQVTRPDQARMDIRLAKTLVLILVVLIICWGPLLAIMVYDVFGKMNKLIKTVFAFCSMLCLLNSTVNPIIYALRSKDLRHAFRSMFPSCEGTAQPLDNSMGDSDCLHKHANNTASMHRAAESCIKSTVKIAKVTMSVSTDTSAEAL

B1: no binding (tested: 200 nM).
B2: no binding (tested: 200 nM).
B3: no binding (tested: 200 nM).
B4: no binding (tested: 200 nM).
